Assay results reported in patent publication US20170342144A1 (Sanofi, published 2017).

T1: human TGFβ2 (human, UniProt P61812 303-414)
T1 construct: also called TGFβ2 homodimer
T1 sequence: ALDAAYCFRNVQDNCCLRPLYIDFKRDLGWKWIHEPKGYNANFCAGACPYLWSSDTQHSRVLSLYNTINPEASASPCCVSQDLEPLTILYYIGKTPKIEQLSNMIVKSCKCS

T2: human TGFβ3 (human, UniProt P10600 301-412)
T2 sequence: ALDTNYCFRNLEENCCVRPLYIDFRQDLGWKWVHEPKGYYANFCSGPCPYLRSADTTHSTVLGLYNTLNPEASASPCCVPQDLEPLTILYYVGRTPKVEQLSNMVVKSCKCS


Key:
human TGFβ1 [1] = biological target: T3, human TGFβ1 (human, UniProt P01137 279-390); test: cell-based or functional assay
T3 construct: also called TGFβ1 homodimer

human TGFβ1 [2] = biological target: T3, human TGFβ1; test: SPR (Biacore 3000), TGFβ1 amine-coupled to the chip, GC1008 IgG as analyte, 1:1 model, average of more than 25 assays
Method: (§1) Additionally, the TGFβ isoform binding affinity of the GC1008 antibody was measured using a Biacore® 3000 (GE Healthcare) instrument. TGFβ1 and TGFβ2, produced in-house, were diluted to ˜1 μg/mL in 10 mM acetate, pH 4.5, and TGFβ3 (R&D Systems) was diluted to ˜2 μg/mL in 10 mM acetate, pH 4.0. Flowcells 2, 3, and 4 of a CMS sensor chip were covalently immobilized with 50 to 100 RU of TGFβ1, TGFβ2, and TGFβ3, respectively, using the standard amine coupling kit from GE Healthcare. Flowcell 1 was used as a control surface. […] The surface was regenerated with two 30 sec injections of 40 mM HCl at 75 μL/min. The sensorgrams were fit using a 1:1 binding model after subtraction of buffer and control flowcell refractive index changes with the BIA Evaluation Software Kit (GE Healthcare). The KD's shown in TABLE 6 are an average of more than 25 independent assays.

human TGFβ2 [3] = biological target: T1, human TGFβ2; test: SPR (Biacore 3000), TGFβ2 amine-coupled to the chip, GC1008 IgG as analyte, 1:1 model, average of more than 25 assays
Method: as §1

human TGFβ3 [4] = biological target: T2, human TGFβ3; test: SPR (Biacore 3000), TGFβ3 amine-coupled to the chip, GC1008 IgG as analyte, 1:1 model, average of more than 25 assays
Method: as §1

human TGFβ2 [5] = biological target: T1, human TGFβ2; test: Biacore, top 2 concentrations only (90, 30 nM), 1:1 global fit, vs wt GC1008
Method: (§2) In FIG. 6C, seventeen mutants were selected and scaled up to produce sufficient amount of purified protein for KD (equilibrium constant=kd/ka) analysis by Biacore. Multiple concentrations (90, 30, 10 and 3.33 nM) were used in duplicate on the 150 RU level TGFβ1, 2, and 3 immobilized surfaces. KD was calculated using global curve fitting analysis for a 1-to-1 Langmuir binding model. The experimental data from all four concentrations were used for calculation except for I54N and I54R mutants, where only the top 2 concentrations were used. The fold changes in KD were compared to the fold changes in kd (off rate) presented in FIG. 6B, and a heat map was generated for visualization. Similar fold changes were observed from the two data sets, confirming the validity of using kd as a parameter for screening of 155 single mutants as shown in FIG. 6B.

human TGFβ1 [6] = biological target: T3, human TGFβ1; test: as above
Method: as §2

human TGFβ3 [7] = biological target: T2, human TGFβ3; test: as above
Method: as §2

human TGFβ2 [8] = biological target: T1, human TGFβ2; test: Biacore off-rate vs wt GC1008, 50 nM
Outline: (§3)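 Surface plasmon resonance on a Biacore 3000 measured how fast purified antibody variants dissociated from TGFβ isoforms immobilized at about 100 RU. Variants carried single heavy- or light-chain substitutions and were produced by transient Expi293F transfection with Protein A cleanup. Samples at 50 nM were tested in duplicate, and each variant kd was divided by the wild-type control kd to give fold change.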

human TGFβ1 [9] = biological target: T3, human TGFβ1; test: Biacore off-rate vs wt GC1008, 50 nM
Outline: as §3

human TGFβ3 [10] = biological target: T2, human TGFβ3; test: Biacore off-rate vs wt GC1008, 50 nM
Outline: as §3

human TGFβ2 [11] = biological target: T1, human TGFβ2; test: Biacore off-rate vs wt GC1008
From the text: (§4) Plasmids encoding either the GC1008 heavy chain or light chain were used as a template in PCR-based mutagenesis reactions. Mutations to the encoding DNA were made to create 155 single amino acid substitutions of the encoded heavy chain amino acid sequence and one single amino acid substitution of the encoded light chain amino acid sequence. A QuikChange® Lightning Site-Directed Mutagenesis kit (Agilent Technologies, Santa Clara Calif.) was used according to the manufacturer's instructions to create DNA mutations using a set of forward and reverse primers, either designed for a specific amino acid or for all 20 amino acids with a degenerate codon (NNK). After sequencing confirmation, identified mutant DNA was paired with a wild-type light or heavy chain DNA for transfection into an Expi293F™ host cell suspension (Life Techonologies Corp., Grand Island, N.Y.). At 4 days post-transfection, conditioned media (1 mL) was harvested and purified using a 1 mL Protein A PhyTip® column (PhyNexus, Inc., San Jose, Calif.) and a PureSpeed™ 12-channel pipette (Rainin Instrument LLC, Oakland, Calif.). Purified variant antibody samples were analyzed in duplicate on a Biacore® 3000 (GE Healthcare) at 50 nM concentrations, using the 100 RU level TGFβ1, 2, and 3 immobilized surfaces. The off-rate (kd) of the variants was divided by the kd of the wild-type control to obtain the fold change in the kd. […] A heat map was generated to visualize the results. Variants that completely lost affinity for TGFβ were shown in red without numbers.

human TGFβ1 [12] = biological target: T3, human TGFβ1; test: Biacore off-rate vs wt GC1008
From the text: as §4

human TGFβ3 [13] = biological target: T2, human TGFβ3; test: Biacore off-rate vs wt GC1008
From the text: as §4

T3 sequence (P01137 279-390 limits assumed): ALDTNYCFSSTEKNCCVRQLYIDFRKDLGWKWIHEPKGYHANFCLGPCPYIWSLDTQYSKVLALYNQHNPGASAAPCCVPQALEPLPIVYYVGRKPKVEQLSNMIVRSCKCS

| % neutralization in MLEC proliferation assay at 91 pM antibody (human TGFβ1 [1]) | Kd (human TGFβ1 [2]) | Kd (human TGFβ2 [3]) | Kd (human TGFβ3 [4]) | KD mutant/KD wt (human TGFβ2 [5]) | KD mutant/KD wt (human TGFβ1 [6]) | KD mutant/KD wt (human TGFβ3 [7]) | kd var/kd wt (human TGFβ2 [8]) | kd var/kd wt (human TGFβ1 [9]) | kd var/kd wt (human TGFβ3 [10]) | kd mutant/kd wt (human TGFβ2 [11]) | kd mutant/kd wt (human TGFβ1 [12]) | kd mutant/kd wt (human TGFβ3 [13]) | Molecule |
| --- | --- | --- | --- | --- | --- | --- | --- | --- | --- | --- | --- | --- | --- |
|  |  |  |  | 5.3 | 11 | 11.4 | 5.2 | 7.6 | 4.8 | 5.2 | 7.6 | 4.8 | I54R (antibody, V domains shown, GC1008 IgG4 variant) VH: QVQLVQSGAEVKKPGSSVKVSCKASGYTFSSNVISWVRQAPGQGLEWMGGVIPRVDIANYAQRFKGRVTITADESTSTTYMELSSLRSEDTAVYYCASTLGLVLDAMDYWGQGTLVTVSS VL: ETVLTQSPGTLSLSPGERATLSCRASQSLGSSYLAWYQQKPGQAPRLLIYGASSRAPGIPDRFSGSGSGTDFTLTISRLEPEDFAVYYCQQYADSPITFGQGTRLEIK |
|  |  |  |  | 4.5 | 7 | 13.1 | 2.4 | 4.9 | 4.3 | 2.4 | 4.9 | 4.3 | I54N (antibody, V domains shown, GC1008 IgG4 variant) VH: QVQLVQSGAEVKKPGSSVKVSCKASGYTFSSNVISWVRQAPGQGLEWMGGVIPNVDIANYAQRFKGRVTITADESTSTTYMELSSLRSEDTAVYYCASTLGLVLDAMDYWGQGTLVTVSS VL: ETVLTQSPGTLSLSPGERATLSCRASQSLGSSYLAWYQQKPGQAPRLLIYGASSRAPGIPDRFSGSGSGTDFTLTISRLEPEDFAVYYCQQYADSPITFGQGTRLEIK |

Continued, molecule first:

| Molecule | % neutralization in MLEC proliferation assay at 91 pM antibody (human TGFβ1 [1]) | Kd (human TGFβ1 [2]) | Kd (human TGFβ2 [3]) | Kd (human TGFβ3 [4]) | KD mutant/KD wt (human TGFβ2 [5]) | KD mutant/KD wt (human TGFβ1 [6]) | KD mutant/KD wt (human TGFβ3 [7]) | kd var/kd wt (human TGFβ2 [8]) | kd var/kd wt (human TGFβ1 [9]) | kd var/kd wt (human TGFβ3 [10]) | kd mutant/kd wt (human TGFβ2 [11]) | kd mutant/kd wt (human TGFβ1 [12]) | kd mutant/kd wt (human TGFβ3 [13]) |
| --- | --- | --- | --- | --- | --- | --- | --- | --- | --- | --- | --- | --- | --- |
| 1D11.16 (antibody) | 12% |  |  |  |  |  |  |  |  |  |  |  |  |
| GC1008 (antibody, human IgG4, V domains shown, also called GC1008 antibody; wild-type control) VH: QVQLVQSGAEVKKPGSSVKVSCKASGYTFSSNVISWVRQAPGQGLEWMGGVIPIVDIANYAQRFKGRVTITADESTSTTYMELSSLRSEDTAVYYCASTLGLVLDAMDYWGQGTLVTVSS VL: ETVLTQSPGTLSLSPGERATLSCRASQSLGSSYLAWYQQKPGQAPRLLIYGASSRAPGIPDRFSGSGSGTDFTLTISRLEPEDFAVYYCQQYADSPITFGQGTRLEIK |  | 1.7 nM | 3 nM | 2 nM |  |  |  |  |  |  |  |  |  |
